Source: patent US6953577B2, “Human methionine aminopeptidase type 3” (Pharmacia Corporation, priority 1999, dated 2005)

B1: recombinant human MetAP-3 (Homo sapiens) (protein)
chain: SSPLNHIYLHKQSSSQQRRNFFFRRQRDISHSIVLPAAVSSAHPVPKHIKKPDYVTTGIVPDWGDSIEVKNEDQIQGLHQACQLARHVLLLAGKSLKVDMTTEEIDALVHREIISHNAYPSPLGYGGFPKSVCTSVNNVLCHGIPDSRPLQDGDIINIDVTVYYNGYHGDTSETFLVGNVDECGKKLVEVARRCRDEAIAACRAGAPFSVIGNTISHITHQNGFQVCPHFVGHGIGSYFHGHPEIWHHANDSDLPMEEGMAFTIEPIITEGSPEFKVLEDAWTVVSLDNQRSAQFEHTVLITSRGAQILTKLPHEA
notes: The coding region of hMetAP-3 was also cloned into the EcoRI/HindIII sites of the pET43a vector and expressed as a fusion protein; NusA (N, cleaved yes); 6xHis (N, cleaved yes); made in house; host or cells: E. coli Tuner (DE3)plysS, pET43a
B2: recombinant human MetAP-2 (Homo sapiens) (protein)
chain: MAGVEEVAASGSHLNGDLDPDDREEGAASTAEEAAKKKRRKKKKSKGPSAAGEQEPDKESGASVDEVARQLERSALEDKERDEDDEDGDGDGDGATGKKKKKKKKKRGPKVQTDPPSVPICDLYPNGVFPKGQECEYPPTQDGRTAAWRTTSEEKKALDQASEEIWNDFREAAEAHRQVRKYVMSWIKPGMTMIEICEKLEDCSRKLIKENGLNAGLAFPTGCSLNNCAAHYTPNAGDTTVLQYDDICKIDFGTHISGRIIDCAFTVTFNPKYDTLLKAVKDATNTGIKCAGIDVRLCDVGEAIQEVMESYEVEIDGKTYQVKPIRNLNGHSIGQYRIHAGKTVPIVKGGEATRMEEGEVYAIETFGSTGKGVVHDDMECSHYMKNFDVGHVPIRLPRTKHLLNVINENFGTLAFCRRWLDRLGESKYLMALKNLCDLGIVDPYPPLCDIKGSYTAQFEHTILLRPTCKEVVSRGDDY

Assays:
[1] = substrate: CSCC[C@H](N)C(=O)N[C@@H](C)C(=O)N[C@@H](CO)C(=O)O; assay: Methionine aminopeptidase activity assay (methionine release from tripeptide, coupled L-amino acid oxidase/Amplex Red); type: biochemical, human; settings: other: hydrolysis of methionine from MAS peptide substrate; pH 7.5
Procedure: (§1) Hydrogen peroxide, produced by the L-amino acid oxidase reaction, was measured by monitoring the formation of resorufin from Amplex Red in a reaction catalyzed by of horseradish peroxidase. […] The reaction was performed in a 96-well plate format at ambient temperature using the following assay buffer: 20 mM HEPES-Na pH 7.5, 100 mM NaCl, 0.1 mM CoCl2 containing 100 μM Amplex Red, 0.15 U/ml L-amino acid oxidase, 0.5 U/ml horseradish peroxidase.
(§2) The IC50 values were determined under conditions in which enzyme concentration and reaction time were linear.

[2] = substrate: CSCC[C@H](N)C(=O)N[C@@H](C)C(=O)N[C@@H](CO)C(=O)O; assay: purified protein, by the assay type; settings: other: hydrolysis of methionine from MAS peptide substrate; pH 7.5
Procedure: as §1, §2

| Protein | Km [1] [µM] | kcat [1] [s⁻¹] | Km [2] [µM] | kcat [2] [s⁻¹] |
| --- | --- | --- | --- | --- |
| B1 | 600 | 0.06 |  |  |
| B2 |  |  | 300 | 2.3 |
